Two substances from publication PMC6981184 can be followed below.

In one test the target is soluble CD4 (UniProt P01730). The test is described as follows: SPR. For orientation: In SPR one partner is held on a chip, and binding of the other changes the refractive index at the surface.
In test [1] the target is BG505 N332 SOSIP gp140 envelope trimer (unmutated BG505 SOSIP) (HIV-1 (clade A, BG505)). The test is described as follows: negative-stain electron microscopy.
Another test concerns the target soluble CD4 (sCD4) (UniProt P01730). The test is described as follows: SPR.

On to “BG505 N332 SOSIP gp140 envelope trimer (unmutated BG505 SOSIP) (complex)”, for which the Kd (usually the free concentration of one partner at which half of the binding sites on the other are occupied at equilibrium, for simple one-to-one binding) in the test with soluble CD4 came to 0.0679 µM. The stoichiometry N (in general, the number of molecules, sites or subunits per partner or assembly) in test [1] was found to be 3.

As for “BG505 SOSIP.664 (unmutated BG505 N332 SOSIP gp140 trimer) (complex)”, in the test with soluble CD4 (sCD4), the koff (in general, the rate constant with which the complex falls apart) is 0.00061 s⁻¹ and the association rate constant (kon) (as a rule, a measure of how fast the partners come together) turned out to be 11200 M⁻¹ s⁻¹.
